From article PMC9293779 (2022)

Target: Unmodified H3 (15–39) (Homo sapiens, matured GFP-type chromophore; AG itself is the assayed negative control. Accession is from memory; wild-type AG assumed rather than the monomeric version)
Assay: ITC

Kd: > 1 mM
B1: Azami-Green (AG) protein alone (natural protein)
chain: MSVIKPEMKIKLCMRGTVNGHNFVIEGEGKGNPYEGTQILDLNVTEGAPLPFAYDILTTVFQYGNRAFTKYPADIQDYFKQTFPEGYHWERSMTYEDQGICTATSNISMRGDCFFYDIRFDGVNFPPNGPVMQKKTLKWEPSTEKMYVRDGVLKGDVNMALLLEGGGHYRCDFKTTYKAKKDVRLPDYHFVDHRIEILKHDKDYNKVKLYENAVARYSMLPSQAK
